Publication PMC2691817 (Nucleic Acids Research, 2009)

Assays:
SEC = biological target: the molecule itself; experiment: SEC
SeqAΔ(41-59)-A25R = biological target: T1, SeqAΔ(41-59)-A25R (Escherichia coli, UniProt P0AFY8 1-181, A25R;del41-59); experiment: EMSA
T1 sequence: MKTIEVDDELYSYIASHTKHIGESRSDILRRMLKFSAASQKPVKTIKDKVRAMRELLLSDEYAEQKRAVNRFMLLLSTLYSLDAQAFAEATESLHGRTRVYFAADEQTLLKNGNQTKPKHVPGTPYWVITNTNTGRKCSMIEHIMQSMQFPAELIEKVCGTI

B1: SeqA-A25R (natural protein, E. coli, UniProt P0AFY8 1-181, looked up)
chain: MKTIEVDDELYSYIASHTKHIGESRSDILRRMLKFSAASQPAAPVTKEVRVASPAIVEAKPVKTIKDKVRAMRELLLSDEYAEQKRAVNRFMLLLSTLYSLDAQAFAEATESLHGRTRVYFAADEQTLLKNGNQTKPKHVPGTPYWVITNTNTGRKCSMIEHIMQSMQFPAELIEKVCGTI
- binding result (SEC): binds

B2: hemimethylated tandem GATC duplex (crystallization oligonucleotide) (dsDNA)
DNA 1: GAGTCGATCGGCGGGATCCTTA
DNA 2: TCTAAGGATCCCGCCGATCGAC
modifications: N6-methyladenine at positions 7 and 16 of strand 1; strand 2 unmethylated
- Kd (SeqAΔ(41-59)-A25R): ~90 nM

B3: SeqAΔ(41–59)-A25R (natural protein, E. coli, UniProt P0AFY8 1-181, looked up)
chain: MKTIEVDDELYSYIASHTKHIGESRSDILRRMLKFSAASQKPVKTIKDKVRAMRELLLSDEYAEQKRAVNRFMLLLSTLYSLDAQAFAEATESLHGRTRVYFAADEQTLLKNGNQTKPKHVPGTPYWVITNTNTGRKCSMIEHIMQSMQFPAELIEKVCGTI
- stoichiometry N (SEC): 2
